Test results as given in article PMC1781754 (2000).

B1: IL-5 (protein)
chain: IPKQSATLRALVRETLTLLSTHRTLLKGNETLRISVPAHKNHQLCIEEIFQGIDTLKNQTTQGEALATLFQNLSLIKKHIDLQKQKCGEERRRVKQFLDYLQEFLAVINTEWTIEG
B2: IL-5 (protein)
chain: MEIPMSTVVKETLTQLSAHRALLTSNETMRLPVPTHKNHQLCIGEIFQGLDILKNQTVRGGTVEMLFQNLSLIKKYIDRQKEKCGEERRRTRQFLDYLQEFLGVMSTEWAMEG

Biological target: T1, IL-5 receptor alpha/beta (Homo sapiens, UniProt Q01344)
T1 chain 1: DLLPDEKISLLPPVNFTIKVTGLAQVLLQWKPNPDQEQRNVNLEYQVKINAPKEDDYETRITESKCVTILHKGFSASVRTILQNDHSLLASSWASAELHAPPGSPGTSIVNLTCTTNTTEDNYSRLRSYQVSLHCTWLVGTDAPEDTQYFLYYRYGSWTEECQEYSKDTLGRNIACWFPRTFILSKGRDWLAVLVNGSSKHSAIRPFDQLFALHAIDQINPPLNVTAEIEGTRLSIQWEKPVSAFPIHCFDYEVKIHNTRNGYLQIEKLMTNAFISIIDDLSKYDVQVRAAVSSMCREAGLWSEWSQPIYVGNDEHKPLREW
T1 chain 2: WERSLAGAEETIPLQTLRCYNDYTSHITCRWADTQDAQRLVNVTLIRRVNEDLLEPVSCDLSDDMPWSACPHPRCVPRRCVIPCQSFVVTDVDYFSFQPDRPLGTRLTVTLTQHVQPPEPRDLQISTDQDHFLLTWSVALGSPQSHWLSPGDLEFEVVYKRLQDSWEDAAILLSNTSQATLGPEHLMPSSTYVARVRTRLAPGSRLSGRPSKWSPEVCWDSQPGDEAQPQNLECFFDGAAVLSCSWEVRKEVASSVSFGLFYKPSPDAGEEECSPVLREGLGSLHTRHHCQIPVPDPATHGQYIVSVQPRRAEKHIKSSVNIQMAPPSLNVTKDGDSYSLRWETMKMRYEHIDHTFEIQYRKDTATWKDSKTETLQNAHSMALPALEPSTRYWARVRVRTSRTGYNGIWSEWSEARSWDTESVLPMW
Assay: radioligand displacement

| Binder | Ki [nM] |
| --- | --- |
| B1 | 0.75 |
| B2 | 0.17 |
